# Numbering of substitutions follows the chain as printed. Read-outs that look alike come from different tables or passages of the source.
# T1: recombinant His-tagged human IL-2Rβ (human, UniProt P14784 27-240, limits assumed)
# T1 construct: also called IL-2Rβ-HIS; IL-15Rβ-HIS
# T1 sequence (looked up): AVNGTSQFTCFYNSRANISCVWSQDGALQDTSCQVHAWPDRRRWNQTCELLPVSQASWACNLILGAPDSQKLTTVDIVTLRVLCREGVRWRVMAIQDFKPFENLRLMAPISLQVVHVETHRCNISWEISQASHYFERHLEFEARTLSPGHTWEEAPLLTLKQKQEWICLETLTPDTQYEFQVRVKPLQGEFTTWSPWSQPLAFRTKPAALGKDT
# B1: 2019EP69-F03 scFv (scFv, not shown: small tags and cut ends)
# scFv: QVQLVQSGAEVKKPGSSVKVSCKASGGTFSSYAISWVRQAPGQGLEWMGGIIPIFGTANYAQKFQGRVTITADESTSTAYMELSSLRSEDTAVYYCARDKWYGSAWRGDYWGQGTLVTVSSGGGGSGGGGSGGGGSQSVLTQPPSASGTPGQRVTISCSGSYSNIGSNFVNWYQQLPGTAPKLLIHFNNQRPSGVPDRFSGSRSGTSASLAISGLQSEDEADYFCSTWDDSLKGPIFGGGTKLTVL
# B2: 2018EP280-E01 scFv (scFv, V domains shown)
# VH: EVQLVESGGGLVKPGGSLRLSCAASGLTFSNAWMSWVRQAPGKGLEWVGRIKSKTDGGTTEYAAPVKGRFTISRDDSKNTLYLQMSSLKTEDTAVYYCTIVYYYDSSGPVFFQHWGQGTLVTVSS
# VL: QSVLTQPPSASATPGQRVTISCSGSDSNIATNYVYWYQQFPGTAPKLLIYRNHQRPSGVPDRFSGSRSGTSASLAISGLRSEDEADYYCATWDDSVNSWVFGGGTKLTVL
# notes: not shown: scFv linker and domain order of the library scFv
# B3: 2018EP161-G08 scFv (scFv, V domains shown)
# VH: not shown
# VL: VIWMTQSPSSLSASLGDRVTITCRASQSVSTYINWYQQKSGKGPKLLIFNASTLQSGVPSRFSGSGSGTDFTLTITSLQPDDSATYYCQQSYRVPLSFGGGTKVEIR
# B4: 2018EP280-E04 scFv (scFv, V domains shown)
# VH: QVQLQQWGAGLLKPSETLSLTCAVYGGSFSGYYWSWIRQPPGKGLEWIGEINHIGSTNYNPSLKSRVTISVDTSNNQFSLKLSSVTAADTAVYYCARGRRLRYFDWAAYNWFDPWGQGTLVTVSS
# VL: QSALTQDPAVSVALGQTVRISCQGDSLRSHYASWYQQKPGQAPVVVVYDNSDRPSGIPDRFSGSNSGNTATLTISRVEVGDEADYYCQVWDSSSDHYVFGTGTKVTVL
# notes: as for B2
# B5: anti-PD-L1 IgG antibody EP480/EP481 (2018EP164-F04) (antibody, V domains shown)
# VH: B4 VH with I54S, N75K
# VL: QSALTQDPAVSVALGQTVRITCQGDSLRSHYASWYQQKPGQAPVVVVYDNSDRPSGIPDRFSGSNSGNTATLTISRVEVGDEADYYCQVWDSSSDHYVFGTGTKVEIRT
# B6: anti-PD-L1 IgG antibody 2018EP280-E04 (printed construct pair EP486/EP489) (antibody, V domains shown)
# VH: B4 VH
# VL: B5 VL with T21S, E106T, I107V, R108L, T109G
# B7: 2018EP170-E06 scFv (scFv, V domains shown)
# VH: EVQLVQSGAEVKKPGSSVKVSCKASGGTFSSYAISWVRQAPGQGLEWMGGIIPIFGTANYAQKFQGRVTITADESTSTAYMELSSLRSEDTAVYYCARDSRWGPAPHAFDIWGQGTMVTVSS
# VL: QQSVLTQPASVSGSPGQSITISCTGTSSDIGSYNLVSWYQNHPGKAPKLILYEITKRPSGVSSRFSGSKSGNAASLTISGLQAEDEAEYFCCSYAGLSVFFVFGGGTKL
# B8: anti-PD-L1 IgG antibody EP488/EP489 (2018EP171-H02) (antibody, V domains shown)
# VH: QVQLVQSGAEVKKPGSSVKVSCKASGGTFSSYAISWVRQAPGQGLEWMGGIIPIFGTANYAQKFQGRVTITADESTSTAYMELSSLRSEDTAVYYCARDKGYGSGWRGDYWGQGTLVTVSS
# VL: QSVLTQPPSASGTPGQRVTISCSGSYSNIGSNFVNWYQQLPGTAPKLLIHFNNQRPSGVPDRFSGSRSGTSASLAISGLQSEDEADYFCSTWDDSLKGPIFGGGTKLTVLG
# B9: IL-2/anti-PD-L1 scFv Fc EP415/EP326 (bispecific antibody)
# chain 1: not shown
# chain 2: QVQLVQSGAEVKKPGSSVKVSCKASGGTFSSYAISWVRQAPGQGLEWMGGIIPIFGTANYAQKFQGRVTITADESTSTAYMELSSLRSEDTAVYYCARDKWYGSAWRGDYWGQGTLVTVSSGGGGSGGGGSGGGGSQSVLTQPPSASGTPGQRVTISCSGSYSNIGSNFVNWYQQLPGTAPKLLIHFNNQRPSGVPDRFSGSRSGTSASLAISGLQSEDEADYFCSTWDDSLKGPIFGGGTKLTVLDKTHTCPPCPAPEAAGGPSVFLFPPKPKDTLMISRTPEVTCVVVDVSHEDPEVKFNWYVDGVEVHNAKTKPREEQYNSTYRVVSVLTVLHQDWLNGKEYKCKVSNKALGAPIEKTISKAKGQPREPQVCTLPPSRDELTKNQVSLSCAVKGFYPSDIAVEWESNGQPENNYKTTPPVLDSDGSFKLVSKLTVDKSRWQQGNVFSCSVMHEALHNHYTQKSLSLSPGK
# notes: IL2 EP337
# Assays:
# [1] = molecular target: PD-L1 on PD-L1 aAPC/CHOK1 cells (Promega J1250); assay: cell-based or functional assay
# human PD-L1-Fc [2] = molecular target: T2, human PD-L1-Fc (human, UniProt Q9NZQ7 19-238); assay: ELISA, coated PD-L1-Fc, anti-FLAG HRP
# T2 construct: also called recombinant PD-L1-Fc fusion protein
# Protocol: (§1) The plate was incubated overnight at 4° C. followed by blocking with 80 μL of superblock per well for 1 hour. […] In between each step, the plate was washed 3 times with 1×PBST in a plate washer. The plate was then developed with 20 μL of TMB substrate for 5 min and stopped by adding 20 μL of 2N sulfuric acid. The plate was read at OD450 nm Biotek plate reader and then plotted in Prism 8.1 software.
# (§2) The production, the binding, and all of the characterization assays for selected affinity matured scFv clones were performed as described above.
# [3] = molecular target: T3, PD-L1 biotinylated (PD-1/PD-L1 TR-FRET assay kit, BPS 72038) (Homo sapiens (Human), UniProt Q9NZQ7 19-238, biotinylated; site not stated); assay: HTRF PD-1/PD-L1 competition (PD-1-Eu and biotinylated PD-L1), % activity; blocked ligand PD-1-Eu
# T3 construct: Kit reagent
# Protocol: (§3) Briefly, 1× Immuno buffer 1 was made. […] For each well in 384-well plate, serial diluted scFvs and regents were added according to manufacturer's recommended volume. Samples were incubated at room temperature for 1.5 hours then the fluorescent intensity was read with Biotek Neo2 plate reader using manufacture's instrument setting for the assay.
# as §2
# [4] = molecular target: T4, full-length human PD-L1 on K562 cells (human, UniProt Q9NZQ7 19-290); assay: FACS, PD-L1/K562 cells
# T4 construct: also called PD-L1/K562; cell surface human PD-L1
# Protocol: (§4) Cells were spun down at 1200 rpm for 5 minutes at 4° C. to remove primary antibodies. Cells were then washed once with 200 μL of full medium per well. […] Samples were spun down at 1200 rpm for 5 minutes at 4° C. and washed twice with 200 μL of 1×PBS per well. Samples were reconstituted in 200 μL of 1×PBS and were read on Attune NxT cytometer.
# as §2
# human PD-L1-Fc [5] = molecular target: T2, human PD-L1-Fc; assay: SPR, PD-L1-Fc captured, scFv analyte
# Protocol: The assay was run with Biacore T200 control software version 2.0. Anti-human Fc antibody was immobilized on flow cell 1 and 2 of CM5 sensor chip. […] The flow cells were then regenerated with antibody regeneration buffer (GE Healthcare) for 30 seconds at flow rate of 30 μl/min.
# as §2
# [6] = molecular target: PD-L1 on PD-L1 aAPC/CHOK1 cells (Promega J1250); assay: cell-based or functional assay; remark: listed apart in the source
# [7] = molecular target: T4, full-length human PD-L1 on K562 cells; assay: FACS, PD-L1/K562 cells; remark: listed apart in the source
# Protocol: as §4
# human PD-L1-Fc [8] = molecular target: T2, human PD-L1-Fc; assay: ELISA, coated PD-L1-Fc, anti-FLAG HRP; remark: listed apart in the source
# Protocol: as §1
# [9] = molecular target: T3, PD-L1 biotinylated (PD-1/PD-L1 TR-FRET …); assay: HTRF competition, competitor PD-1-Eu
# Protocol: as §3
# [10] = molecular target: T5, human PD-L1-HIS tagged recombinant protein (human, UniProt Q9NZQ7 19-238); assay: SPR, IgG on Protein A, PD-L1-HIS analyte
# T5 construct: also called hPD-L1-HIS; PD-L1 HIS tagged protein
# Protocol: The assay was run with Biacore T200 control software version 2.0. For each cycle, 1 μg/mL of anti-hPD-L1-IgG was captured for 60 seconds at flow rate of 10 μl/min on flow cell 2 in 1×HBSP buffer on Protein A sensor chip. […] The flow cells were then regenerated with Glycine pH 2 for 60 seconds at flow rate of 30 μl/min. […] The specific binding response unit was derived from subtraction of binding to reference flow cell 1 from antibody captured flow cell 2.
# [11] = molecular target: T5, human PD-L1-HIS tagged recombinant …; assay: SPR, Protein A capture, PD-L1-HIS analyte
# Protocol: (§5) The assay was run with Biacore T200 control software version 2.0. For each cycle, 1 μg/mL of anti-hPD-L1/IL-2 was captured for 60 seconds at flow rate of 10 μL/min on flow cell 2 in 1×HBSP buffer on Protein A sensor chip. […] The flow cells were then regenerated with Glycine pH2 for 60 seconds at flow rate of 30 μL/min. […] The specific binding response unit was derived from subtraction of binding to reference flow cell 1 from antibody captured flow cell 2.
# biotinylated PD-L1 = biotinylated PD-L1 (Homo sapiens (Human), UniProt Q9NZQ7 19-238, biotinylated; site not stated); assay: ELISA, anti-human Fc capture, biotinylated PD-L1
# Protocol: A 384 well plate was immobilized with anti-human Fc at final concentration of 2 μg/mL in 1×PBS in total volume of 25 μL per well. The plate was incubated overnight at 4C followed by blocking with 80 μL of superblock per well for 1 hour. […] In between each step, the plate was washed 3 times with 1×PBST in a plate washer. The plate was then developed with 25 μL of TMB substrate for 5 min and stopped by adding 25 μL of 2N sulfuric acid. The plate was read at OD450 nm Biotek plate reader and the binding correlation was plotted with Prism 8.1 software. The ELISA binding assays of the antibodies to IL-2Rα and IL-2Rβ receptors were performed as described in Example 6.
# [12] = molecular target: T1, recombinant His-tagged human IL-2Rβ; assay: SPR, Protein A capture, IL-2Rβ-HIS analyte
# Protocol: as §5
# [13] = molecular target: T1, recombinant His-tagged human IL-2Rβ; assay: ELISA, coated His-tagged IL-2Rβ
# Protocol: For monovalent IL-2 Fc-fusion proteins, recombinant His-tagged human IL-2Rα and IL-2Rβ were added in 25 μL of 1×PBS to wells of 384-well plate and incubated overnight at 4° C. to coat the plates. Plates were washed three times with 0.05% Tween20/1×PBS. Plates were blocked with 100 μL of SuperBlock for 1 hr at RT and then washed 3 times with 0.05% Tween20/1×PBS. IL-2 mutants were diluted in 0.05% Tween 20/1×PBS from 1000 nM to 0 nM and added to plates for 2 hrs at room temperature. Plates were then washed 6 times with 0.05% Tween20/1×PBS. Anti-HisTag-HRP was diluted 1:5000 in 0.05% Tween20/1×PBS and added to plates for 1 hr at RT. Plates were then washed 6 times with 0.05% Tween 20/1×PBS, and TMB was added to develop blue color. Reactions were stopped with 2N […] and light absorbance at 450 nm was read on a BioTek plate reader. Absorbance versus IL-2 concentration is graphed for human IL-2Rα and IL-2Rβ. […]
# [14] = molecular target: PD-L1 on PD-L1 aAPC/CHOK1 cells (Promega J1250); assay: cell-based or functional assay; remark: listed apart in the source
binder,measurement,setting,value
B1,Jurkat NFAT reporter assay EC50,[1],123 nM
same,EC50,human PD-L1-Fc [2],0.696 nM
same,IC50 (read off the curve),[3],~100 nM
same,EC50,[4],0.115 nM
same,Kd,human PD-L1-Fc [5],0.0797 nM
same,koff,human PD-L1-Fc [5],9.87e-05 s⁻¹
same,kon,human PD-L1-Fc [5],1.24e+06 M⁻¹ s⁻¹
B2,Jurkat NFAT reporter assay EC50,[6],400 nM
same,EC50,[7],10.8 nM
same,EC50,human PD-L1-Fc [8],8.1 nM
same,IC50,[9],76.8 nM
B3,EC50,human PD-L1-Fc [8],1.16 nM
B4,Jurkat NFAT reporter assay EC50,[6],133 nM
same,EC50,[7],5.51 nM
same,IC50,[9],38.5 nM
B5,Kd,[10],5.73 nM
B6,Kd,[10],2.76 nM
B7,EC50,[7],35.9 nM
same,EC50,human PD-L1-Fc [8],158 nM
B8,Kd,[10],9.5 nM
B9,Kd,[11],0.465 nM
same,EC50,biotinylated PD-L1,0.227 nM
same,Kd,[12],6.17 nM
same,EC50,[13],1.33 nM
same,NFAT reporter EC50,[14],3.46 nM
same,IC50,[9],2280 nM

# Source: patent US20250340646A1 (ELPIS BIOPHARMACEUTICALS, published 2025)
